What was measured:
[1] = target: TR5, non-glycosylated MUC1 peptide […]n with n=5; experiment: ELISA, 10 µg/ml antibody; reference is TR1 (SEQ ID NO: 72)
[2] = target: glycosylated 30mer MUC1 peptide; experiment: ELISA, 10 µg/ml antibody; reference is the non-glycosylated 30mer
[3] = target: glycosylated 30mer MUC1 peptide; experiment: ELISA of Example 5.1; reference is the non-glycosylated 30mer

glycosylated 30mer MUC1 peptide, sequence (peptide, as listed by the source): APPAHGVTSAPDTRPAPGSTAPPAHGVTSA
TR5, non-glycosylated MUC1 peptide […]n with n=5, sequence (peptide, as listed by the source): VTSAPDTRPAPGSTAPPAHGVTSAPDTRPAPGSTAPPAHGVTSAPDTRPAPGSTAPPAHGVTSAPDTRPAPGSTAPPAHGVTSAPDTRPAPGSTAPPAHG

Substance | factor (ratio of the signal with TR5 peptide to that with TR1 peptide) [1] | factor (ratio of glycosylated/non-glycosylated peptide) [2] | factor (glycosylated against non-glycosylated peptide) [3]
C595 (antibody) | 1.1 | < 1.2 | 
HMFG-1 (antibody) |  | < 1.2 | 
SM3 (antibody) | 2.1 | < 1.2 | 1.5
